Data reported in the DeepSol protein solubility set.

Test: soluble on expression in E. coli; label from the status in PepcDB or PDB records

Sequence | soluble on expression in E. coli
PSPGGQMHAGISSFQQSNSSGTYGPQMSQYGPQGNYSRPPAYSGVPSASYSGPGPGMGISANNQMHGQGPSQPCGAVPLGRMPSAGMQNRPFPGNMSSMTPSSPGMSQQGGPGMGPPMPTVNRKAQEAAAAVMQAAANSAQSRQGSFPGMNQSGLMASSSPYSQPMNNSSSLMNTQAPPYSMAPAMVNSSAASVGLADMMSPGESKLPLPLKADGKEEGTPQPESKSKDSYSSQGISQPPTPGNLPVPSPMSPSSASISSFHGDESDSISSPGWPKTPSSPKSSSSTTTGEKITKVYELGNEPERKLWVDRYLTFMEERGSPVSSLPAVGKKPLDLFRLYVCVKEIGGLAQVNKNKKWRELATNLNVGTSSSAASSLKKQYIQYLFAFECKIERGEEPPPEVFSTGDTKKQPKLQPPSPANSGSLQGPQTPQSTGSNSMAEVPGDLKPPTPASTPHGQMTPMQGGRSSTISVHDPFSDVSDSSFPKRNSMTPNAPYQQGMSMPDVMGRMPYEPNKDPFGGMRKVPGSSEPFMTQGQMPNSSMQDMYNQSPSGAMSNLGMGQRQQFPYGASYDRRHEPYGQQYPGQGPPSGQPPYGGHQPGLYPQQPNYKRHMDGMYGPPAKRHEGDMYNMQYSSQQQEMYNQYGGSYSGPDRRPIQGQYPYPYSRERMQGPGQIQTHGIPLQMMGGPLQSSSSEGPQQNMWAARNDMPYPYQNRQGPGGPTQAPPYPGMNRTDDMMVPDQRINHESQWPSHVSQRQPYMSSSASMQPITRPPQPSYQTPPSLPNHISRAPSPASFQRSLENRMSPSKSPFLPSMKMQKVMPTVPTSQVTGPPPQPPPIRREITFPPGSVEASQPVLKQRRKITSKDIVTPEAWRVMMSLKSGLLAESTWALDTINILLYDDSTVATFNLSQLSGFLELLVEYFRKCLIDIFGILMEYEVGDPSQKALDHNAARKDDSQSLADDSGKEEEDAECIDDDEEDEEDEEEDSEKTESDEKSSIALTAPDAAADPKEKPKQASKFDKLPIKIVKKNNLFVVDRSDKLGRVQEFNSGLLHWQLGGGDTTEHIQTHFESKMEIPPRRRPPPPLSSAGRKKEQEGKGDSEEQQEKSIIATIDDVLSARPGALPEDANPGPQTESSKFPFGIQQAKSHRNIKLLEDEPRSRDETPLCTIAHWQDSLAKRCICVSNIVRSLSFVPGNDAEMSKHPGLVLILGKLILLHHEHPERKRAPQTYEKEEDEDKGVACSKDEWWWDCLEVLRDNTLVTLANISGQLDLSAYTESICLPILDGLLHWMVCPSAEAQDPFPTVGPNSVLSPQRLVLETLCKLSIQDNNVDLILATPPFSRQEKFYATLVRYVGDRKNPVCREMSMALLSNLAQGDALAARAIAVQKGSIGNLISFLEDGVTMAQYQQSQHNLMHMQPPPLEPPSVDMMCRAAKALLAMARVDENRSEFLLHEGRLLDISISAVLNSLVASVICDVLFQIGQL | soluble
PSSNGPLEGTRGKLKNKPRDRGTSPPQRAVEEFDDGEKVHLKIDPSVPNGRFHPRFDGQTGTVEGKQGDAYKVDIVDGGKEKTIIVTAAHLRRQE | soluble
PTIFEERHLKYISQLGKGNFGSVELCRYDPLGDNTGALVAVKQLQHSGPDQQRDFQREIQILKALHSDFIVKYRGVSYGPGRPELRLVMEYLPSGCLRDFLQRHRARLDASRLLLYSSQICKGMEYLGSRRCVHRDLAARNILVESEAHVKIADFGLAKLLPLDKDYYVVREPGQSPIFWYAPESLSDNIFSRQSDVWSFGVVLYELFTYCDKSCSPSAEFLRMMGCERDVPALCRLLELLEEGQRLPAPPACPAEVHELMKLCWAPSPQDRPSFSALGPQLDMLWSGSR | soluble
PTILVVGDLMIDHYIWGECERISPEAPVQVIDVKRETKTLGGACNVMSNLIALEASVLSCGVVGEDLAGRELLGFLQELGMESKGIITQKGRPTTQKSRIIASNQQVVRVDWENKSPISEESEEAMIAYIRSKLSLCDAVILSDYGKGVLTPRVCQTIIQMAKTLQKRVLVDPKGRDYSKYRGASLLTPNKKEAKEATGIEINDEASLKKALECLKKECELEFSVITLSEDGIGIFDQALERIPTIAQEVYDVTGAGDTVIASLAYGLSLGYPLRECALFANAAAAVVVGKIGSATATHGEIAEYLHS | not soluble
PTSSTTAALVMGDALAVALLEARGFTAEDFALSHPGGALGRKLLLRVNDIMHTGDEIPHVGLQATLRDALLEITRKNLGMTAICDDDMNIIGIFTDGDLRRVFDTGVDMRDASIADVMTRGGIRIRPGTLAVDALNLMQSRHITCVLVADGDHLLGVVHMHDLLRA | soluble
PVFILGHWRSGTTFVHNVFSCDSHFGYNTTYQTVFPHLMMWGQPFFKKNMSWLMPDKRPTDNMELAVDLPQEEEFALANMMPYTYYNFWFLPRYQQEYADKYLLFDTISEAELKVFEETFTKLIKISLWNTQGTQFLSKNPPHTGRVKELVKMFPNAKFIYLMRNPYTVFESTRSFFTNTIQPLKLQDITPAELENNILSIYAKLYHKYEADKQFIPEGNLMEVKFEDFEADAMGMTENIYHALDIPGFAEARGSIEKYVGGKKGYKKNKYKYDDRTVQLVQDHWDFALKQWDYSL | not soluble
PWLENVQVQLSDLFSELKYNSVSGSGKIGIMASGVSALYVKEAVKGFEELFTLFRVGTVYPFPEKAALSFLKGIEKLIVVEELDPYLEEQALQLIGRAHLPADVYGKKNGFFPVSGEYNVDIIIDCINKVLAELGETSRLSHSAPAIPRSGLPPLPVRAPTLCAGCMHRTVFYAFKQASKQLKKDFQVETIFSGDIGCYTLGNAHPLNMVDTCLCMGAGMSIAGGLSRANPGVKQVAFIGDSTFFHSGIPAVINAVYNGSDVTLAVLDNRTTAMTGHQTHPGIGVTVLGSPSKAVDISDVIRSCGVELVRSVDIDSLENSLEGCIEAAKEAVEFKGPSAVVFKGKCVGITKPVIRFEIDTESCTGCGLCVKQLGCPALFLPAGEEKPVIQDSCSGCGLCAQVCPSGAIIETGVK | not soluble
PYKASKSRGLVVSNIYSRYDINELESGLMRVSQNKYSPDNYLFQEGQYLDKETLEKWLDRKSEKNPNGLNPESNGDGKDRKPIYLAHILEQDYLKQTDKDTVALGGISIALAMNSVDYYQKEQYGDTFEQEISDSDLLAQGKEMSGTVLNRIRQTKGLENVPVTIAIYKQGPRDAVAPGNFLTYATANGDSLSSWKDVEEKNYVLPSTESAKDHKTDNDNFLNFKKAIEDYYPNFTGVVGRARYEDGQLAELSIDIPLQFYGQAEIIGFTQYVTDLVGQHIPKTADLQVNISTSDGPAALITRKANEDAATA | not soluble
QAGFNDLFTINNTPAKTATEIYLENFPEQRNPLKSTGVNIVFKAPEGHTLAEPENKAAMDSVVQAIQDNLEGLTNTQRFGNPVELNPKLQQGVIDLMTQRGVPEENARADAANLSLITPDETIGYTTFDIDVPMPADVSDAQRQAITDAMNLGREKGLTVEAGGAGFGDPIVIEETSE | not soluble
QCTGGADCTSCTGACTGCGNCPNAVTCTNSQHCVKANTCTGSTDCNTAQTCTNSKDCFEANTCTDSTNCYKATACTNSSGCPGH | soluble
QDKITVTSEKPVAAADVPADAVVVGIEKMKYLTPEVTIKAGETVYWVNGEVMPHNVAFKKGIVGEDAFRGEMMTKDQAYAITFNEAGSYDYFCTPHPFMRGKVIVE | soluble
QFMKPFISEKSSKSLEIPLGFNEYFPAPFPITVDLLDYSGRSWTVRMKKRGEKVFLTVGWENFVKDNNLEDGKYLQFIYDRDRTFYVIIYGHNMCS | not soluble
QGDLLLAQYTRAYGYYNPAYAGMRKEIFITALHNRQWEGMPRSPKSFVVLADAPIRFFDREHGVGVRVVTETRGLFAINELMGQYAFKQKLFGGDLSVALQAGLVNTAFDGTKVELETENDPAIPLTKVSGKAFDIGAGIYYRRKE | not soluble
QIVLTQSPAIMSASLGDRVTMTCTASSSVSSSYLHWYQQKPGSSPKLWIYSTSNLASGVPARFSGSGSGTSYSLTISSMEAEDAATYYCHQFHRSLTFGSGTKLE | soluble
QLHLSLPSDTQASYSSTQRKQAEIMAEGFGPGINSPFLVVADAHSVDENAEILEPLIRAQNPAPGERKQAAANAAYQYIIQKYSVTPDVKHVQIVGLSKDGLAAQLLLTPESSPEDDVTKQLIDALLIKQDEVNNATGIRSGITGLIPVQQDVTNR | not soluble
QPTAQQQLTKPAKITCANCKKPLQKGQTAYQRKGSAHLFCSTTCLSSFS | soluble
QQQHKVLKTVKVTEQLKHCSEILKEMLAKKHLPYAWPFYNPVDADALGLHNYYDVVKNPMDLGTIKGKMDNQEYKDAYEFAADVRLMFMNCYKYNPPDHEVVAMARTLQDVFELHFAKIPDEPIES | soluble
